Experimental data taken from PMC4814574.

Biological target: C/EBPα WT (ivt) (human, UniProt P49715 1-358)
Test: EMSA; supershift by C/EBPα antibody; 10 mM HEPES-KOH pH 7.9, 50 mM KCl, 2.5 mM MgCl2, 1 mM DTT, 10% glycerol, 1 ug BSA, 0.5 ug poly(dI-dC), 25 ul, on ice 20 min; 6% gel, 0.5x TBE, 4 °C

C/EBPα WT (ivt), sequence (P49715 whole entry): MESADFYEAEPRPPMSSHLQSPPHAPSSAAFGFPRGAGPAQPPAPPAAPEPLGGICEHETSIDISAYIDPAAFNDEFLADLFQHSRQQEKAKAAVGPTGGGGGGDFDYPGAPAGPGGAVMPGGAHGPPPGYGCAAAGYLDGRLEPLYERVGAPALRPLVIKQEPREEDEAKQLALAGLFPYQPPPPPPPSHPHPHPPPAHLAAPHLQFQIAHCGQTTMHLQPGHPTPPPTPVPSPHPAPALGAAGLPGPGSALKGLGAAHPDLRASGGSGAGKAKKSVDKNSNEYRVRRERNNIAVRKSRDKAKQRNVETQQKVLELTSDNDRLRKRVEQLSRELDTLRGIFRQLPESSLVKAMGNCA

B1: G-CSF receptor promoter C/EBP site oligonucleotide (dsDNA)
DNA 1: CTAGGGCTTGCGCAATCTATATTCG
DNA 2: CGAATATAGATTGCGCAAGCCCTA
  binding result: binds
